Measured values published in publication PMC11352566, “Recombinant C-Terminal Catalytic Domain of Rat L-Gulono Lactone Oxidase Produced in Bacterial Cells Is Enzymatically Active” (Current Issues in Molecular Biology, 2024).

B1: cGULO (C-terminal catalytic domain of rat GULO, cGULO-His) (Rattus norvegicus) (protein)
chain: NRFFFWMLFNCKKESSNLSHKIFTYECRFKQHVQDWAIPREKTKEALLELKAMLEAHPKVVAHYPVEVRFTRGDDILLSPCFQRDSCYMNIIMYRPYGKDVPRLDYWLAYETIMKKFGGRPHWAKAHNCTQKDFEEMYPTFHKFCDIREKLDPTGMFLNSYLEKVFY
notes: C-terminal cytoplasmic (catalytic ALO) domain, 167 residues, lacks 273 N-terminal residues incl
B2: fGULO (full-length rat GULO, fGULO-His) (Rattus norvegicus) (protein)
chain: MVHGYKGVQFQNWAKTYGCSPEVYYQPTSVEEVREVLALAREQKKKVKVVGGGHSPSDIACTDGFMIHMGKMNRVLQVDKEKKQITVEAGILLADLHPQLDEHGLAMSNLGAVSDVTVAGVIGSGTHNTGIKHGILATQVVALTLMTADGEVLECSESRNADVFQAARVHLGCLGIILTVTLQCVPQFHLQETSFPSTLKEVLDNLDSHLKRSEYFRFLWFPHTENVSIIYQDHTNKAPSSASNWFWDYAIGFYLLEFLLWTSTYLPCLVGWINRFFFWMLFNCKKESSNLSHKIFTYECRFKQHVQDWAIPREKTKEALLELKAMLEAHPKVVAHYPVEVRFTRGDDILLSPCFQRDSCYMNIIMYRPYGKDVPRLDYWLAYETIMKKFGGRPHWAKAHNCTQKDFEEMYPTFHKFCDIREKLDPTGMFLNSYLEKVFY

Substrate: O=C1O[C@H]([C@@H](O)CO)[C@H](O)[C@@H]1O
Test: ascorbic acid formation, colorimetric kit; Lineweaver-Burk
Format: biochemical, Rattus norvegicus
Settings: 50 mM potassium phosphate pH 7.0, 50 mM citrate, 1 mM DTT, 10 µM FAD, aerobic (O2), 37 °C

Row | Protein | Km [µM]
1 | B1 | 42 ± 6.3
2 | B2 | 53.5 ± 5
